Assay [1] addresses T1, KRAS(G13D), GDP-bound (Meleagris gallopavo (Wild turkey), UniProt P79800 1-174, GDP bound non-covalently; biotin on the N-terminal Avi-tag, and the tag is not in the letters).
T1 construct: Same protein as m19, loaded with GDP
The assay is described as follows: yeast display titration, flow cytometry.

Assay [2] deals with T2, KRAS(G12D), GDP-bound (Meleagris gallopavo (Wild turkey), UniProt P79800 1-174, GDP bound non-covalently; biotin on the N-terminal Avi-tag, and the tag is not in the letters).
T2 construct: Same protein as m17, loaded with GDP
The experiment in a line: yeast display titration, flow cytometry.

In assay [3] the target is T3, KRAS(G12D), GTPγS-bound (Meleagris gallopavo (Wild turkey), UniProt P79800 1-174, GTPγS bound non-covalently; biotin on the N-terminal Avi-tag, and the tag is not in the letters).
T3 construct: Loaded with GTPγS; tagged and biotinylated in the yeast-display assay
The assay is described as follows: yeast display titration, flow cytometry.

The target of assay [4] is T4, KRAS(G13D), GTPγS-bound (Meleagris gallopavo (Wild turkey), UniProt P79800 1-174, GTPγS bound non-covalently; biotin on the N-terminal Avi-tag, and the tag is not in the letters).
T4 construct: Loaded with GTPγS; tagged and biotinylated in the yeast-display assay
The experiment in a line: yeast display titration, flow cytometry.

Assay [5] has as its target KRAS(G12V) in cells (endogenous in PATU8902 and H441) (UniProt P01116-2 1-185, limits assumed).

Here are results for one molecule from US20220177531A1 (NEW YORK UNIVERSITY, published 2022).

B1: Monobody 12VC1 (designed binder)
chain: VSSVPTKLEVVAATPTSLLISWDAPAVTVFFYVITYGETGHGVGAFQAFKVPGSKSTATISGLKPGVDYTITVYARGYSKQGPYKPSPISINYRT
As to B1, the binding result in assay [1], in assay [2], in assay [3] and in assay [4] was “no binding (tested: 100 nM)” in each case. Further, the FoldChange in assay [5] was 1360.
